Values quoted from earlier work, collected in patent publication US20260009081A1, “CLONAL HEMATOPOIESIS AND CYTOKINE TARGETS” (TRUSTEES OF BOSTON UNIVERSITY, priority 2018, published 2026).

Molecular target: T1, IL-1β (Homo sapiens, UniProt P01584)
T1 construct: endogenous in cells; host or cells: CANTOS trial patients (endogenous cytokine)

## canakinumab: IL-1β neutralizing antibody; interleukin 1 beta monoclonal antibody
patients
  side effect of therapy: infection side effect
Patients with stable coronary artery disease and elevated C-reactive protein
  major adverse cardiovascular events: can reduce major adverse cardiovascular events
